Measurements: patent US20220073596A1 (CITRYLL B V, published 2022)
Where no end group is shown, it is not given here. [ ]: non-standard residue; d: D form. Cit = NC(=O)NCCC[C@H](N)C(=O)O

What was measured:
[1] = target: T1, N-terminal citrullinated peptide of Histone H2A (SEQ ID NO: 1), SGCitGKQGGKARA (also: biotin, place not given here); test: peptide ELISA, biotin peptide on neutravidin
T1 peptide: SG[Cit]GKQGGKARA
Protocol: Optical density was measured by 450 nm and is a measure for the affinity of the antibodies used.

[2] = target: T2, Arginine containing control peptide of Histone H2A N-terminus (SEQ ID NO: 3), SGRGKQGGKARA (free N-terminal NH2 group); test: peptide ELISA
T2 construct: Control peptide with arginine in place of citrulline
T2 peptide: SGRGKQGGKARA

binding result [1]: binds
binding result [2]: no binding
B1: Mouse monoclonal antibody Rmmab22.101 (antibody, V domains shown)
VH: RIQLVQSGPELKKPGEAVKISCKASGYTFTNYGMHWMKQTPGKDFRWMGWINTYSGEATYVDDFKGRFAFSLGTSASTAYLQINNLKNDDTATYFCLRGYTYQSFDEGGDYWGQGTALTVSS
VL: not shown
notes: Mouse monoclonal from hybridoma DSMZ ACC 3031; also called MQ22.101
